Reference: patent US20250361274A1, “PEPTIDE AND PEPTIDE-CONTAINING AGENT” (PEPTIDREAM INC., priority 2022, published 2025)
Numbered stars: 1 amine (or outer) side, 2 acyl side, 3 side chain; on linkers, the order of the positions; unused ones are H or OH. Bridge positions count the residues as written; N and C are the ends. Square brackets hold non-standard residues; d marks the D form. Side chains are listed from the residue outwards. Ends that are not written are not given here. Peptide text beside a SMILES is read from it. * marks the point of attachment. KCOpipzaa = N6-(4-(carboxymethyl)piperazine-1-carbonyl)-L-lysine, O=C(NCCCC[C@H](N[*:1])C(=O)[*:2])N1CCN(CC(=O)[*:3])CC1; Bph3C = (S)-2-amino-3-(3'-chloro-[1,1'-biphenyl]-4-yl)propanoic acid, O=C([C@H](Cc1ccc(-c2cccc(Cl)c2)cc1)N[*:1])[*:2]; Cha4tH = (S)-2-amino-3-((1r,4S)-4-hydroxycyclohexyl)propanoic acid, O=C([C@H](C[C@H]1CC[C@H](O[*:3])CC1)N[*:1])[*:2]; 3Pal(6-Ph) = N[C@@H](Cc1ccc(-c2ccccc2)nc1)C(=O)O; Phe(4-COOH) = N[C@@H](Cc1ccc(C(=O)O)cc1)C(=O)O; NMePhe(4-Me) = CN[C@@H](Cc1ccc(C)cc1)C(=O)O; Piperazinyl(4-CH2COOH) = O=C(O)CN1CCN(*)CC1; Bip = N[C@@H](Cc1ccc(-c2ccccc2)cc1)C(=O)O; Phe(4-F) = N[C@@H](Cc1ccc(F)cc1)C(=O)O; Hyp = O=C(O)[C@@H]1C[C@@H](O)CN1; NMeF = CN[C@@H](Cc1ccccc1)C(=O)O; 4Pal = N[C@@H](Cc1ccncc1)C(=O)O; Cha = N[C@@H](CC1CCCCC1)C(=O)O; Ahp(2) = CCCCC[C@H](N)C(=O)O; CO = O=C([*:1])[*:2]; βAla = NCCC(=O)O

Assays:
[1] = target: T1, BMP4 (Homo sapiens, UniProt P12644); experiment: BMP4 signal transduction inhibitory activity: SMAD1 phosphorylation by BMP4 stimulus, AlphaLISA SureFire, A549 cells; type: cell-based; details: for aLISA BMP4 (0.2 nM) % inh: peptide conc. in assay 0.2, 2, 20 nM; for aLISA BMP4: inhibition of SMAD1 phosphorylation by BMP4 stimulus, A549 cells
T1 sequence (P12644 293-408): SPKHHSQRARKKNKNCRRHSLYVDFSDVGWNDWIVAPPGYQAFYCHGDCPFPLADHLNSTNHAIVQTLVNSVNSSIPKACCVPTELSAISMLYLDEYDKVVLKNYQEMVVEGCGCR

[2] = target: T2, BMP7 (Homo sapiens, UniProt P18075); experiment: BMP7 signal transduction inhibitory activity: SMAD1 phosphorylation by BMP7 stimulus, A549 cells; type: cell-based; details: for aLISA BMP7 (10 nM) % inh: peptide conc. in assay 1, 10, 100 nM; for aLISA BMP7: inhibition of SMAD1 phosphorylation by BMP7 stimulus, A549 cells
T2 sequence (P18075 293-431): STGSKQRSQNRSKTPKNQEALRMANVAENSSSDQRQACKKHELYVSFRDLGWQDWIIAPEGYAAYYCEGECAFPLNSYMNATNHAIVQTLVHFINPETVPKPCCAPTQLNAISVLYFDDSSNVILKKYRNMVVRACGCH
In short: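 Inhibition was measured as loss of BMP7-induced SMAD1 phosphorylation, using 10 nM BMP7 on A549 cells. Most peptides were given as three-concentration sets, such as 1/10/100, 10/100/1,000, 100/300/1,000 or 10/30/90 nM. Others were given as eight 1/3-ratio dilutions from 100 or 1,000 nM, alongside Noggin as control.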

[3] = BMP4 0.2 nM stimulus, peptide conc. in assay 0.02, 0.2, 2 nM, class symbols
[4] = BMP7 10 nM stimulus, peptide conc. in assay 100, 300, 1000 nM, class symbols
[5] = AlphaLISA, class by peptide concentration zone
[6] = peptides of Synthesis 2, classes A-C, ND
[7] = peptides of Synthesis 2, classes A-D, ND
[8] = SMAD1 phosphorylation, BMP4 0.2 nM
[9] = SMAD1 phosphorylation, BMP7 10 nM

## CC(C)[C@@H]1NC(=O)[C@H](Cc2ccc(C(=O)O)cc2)NC(=O)[C@H](C(C)C)NC(=O)[C@H](CCCNC(=N)N)NC(=O)[C@H](CCC(=O)O)NC(=O)CSC[C@@H](C(=O)NCC(N)=O)NC(=O)[C@H](CO)NC(=O)[C@H](Cc2ccc(C(=O)O)cc2)NC(=O)[C@H](Cc2ccc(C(=O)O)cc2)NC(=O)[C@H](Cc2ccc(O)cc2)NC(=O)[C@H](Cc2ccc(-c3ccccc3)cc2)NC(=O)[C@@H]2C[C@@H](O)CN2C(=O)[C@H](Cc2ccc(O)cc2)NC(=O)[C@H](CCCCNC(=O)N2CCN(CC(=O)O)CC2)NC(=O)[C@H](Cc2ccc(-c3ccccc3)nc2)NC(=O)[C@H](CCCNC(=N)N)NC(=O)[C@H](CCCCNC(=O)N2CCN(CC(=O)O)CC2)NC1=O [compound 277] ({CH2CO}-ERV[Phe(4-COOH)]VK([CO-Piperazinyl(4-CH2COOH)])R[3Pal(6-Ph)]K([CO-Piperazinyl(4-CH2COOH)])Y[Hyp][Bip]Y[Phe(4-COOH)][Phe(4-COOH)]SCG-NH2; thioether N-17)
[1]; [3]
  aLIZA BMP4 (0.2 nM) % inh: B (showed less than 30% of inhibitory activity in 0.02 nM-addition zone and showed 30% or more of inhibitory activity in 0.2 nM-addition zone)
[2]; [4]
  aLIZA BMP7 (10 nM) % inh: H (showed less than 30% of inhibitory activity in 300 nM-addition zone and showed 30% or more of inhibitory activity in 1,000 nM-addition zone)

## 404 (FG[NMeF]G[Bip]GDE[Cha]Q[NMeF]L[Phe(4-COOH)]C-NH2; not fully specified) [compound 404]
[1]; BMP4 0.2 nM stimulus
  aLISA BMP4 (0.2 nM) % inh: ND (the inhibitory activity was less than 30% at the maximum concentration evaluated)
[2]; BMP7 10 nM stimulus
  aLISA BMP7 (10 nM) % inh: C (showed less than 30% of inhibitory activity in a zone to which the peptide was added in an amount of 1 nM and showed 30% or more of inhibitory activity in 10 nM-addition zone)

## 65 (Ac-E[KCOpipzaa]VYVDR[Bip]PYP[Bip][Phe(4-F)][Phe(4-COOH)][Phe(4-COOH)]SCG-NH2; thioether (positions not given here); not fully specified (bridges)) [compound 65]
[1]; [5]
  aLISA BMP4: A (showed an inhibitory activity of 50% or more in a zone to which the peptide was added to in an amount of 0.2 nM)
[2]; [5]
  aLISA BMP7: C (showed less than 50% of inhibitory activity in 10 nM-addition zone and showed 50% or more of inhibitory activity in 100 nM-addition zone)

## 64 (Ac-E[KCOpipzaa]VYVD[KCOpipzaa][Bip]PYP[Bip]Y[Phe(4-COOH)][Phe(4-COOH)]SCG-NH2; thioether (positions not given here); not fully specified (bridges)) [compound 64]
[1]; [5]
  aLISA BMP4: C (showed an inhibitory activity of less than 50% in 0.2 nM-addition zone and showed an inhibitory activity of 50% or more in 2 nM-addition zone were defined as B or C)
[2]; [5]
  aLISA BMP7: D (showed less than 50% of inhibitory activity in 100 nM-addition zone)

## 244 (ARVYVDR[3Pal(6-Ph)]SYV[Bip]Y[Phe(4-COOH)][Phe(4-COOH)]SCG-NH2; not fully specified) [compound 244]
[1]; SMAD1 phosphorylation by BMP4 stimulus, peptide conc. in assay 0.02, 0.2, 2 nM, class symbols
  aLIZA BMP4 (0.2 nM) % Inh: C (showed less than 30% of inhibitory activity in 0.2 nM-addition zone and showed 30% or more of inhibitory activity in 2 nM-addition zone)
[2]; SMAD1 phosphorylation by BMP7 stimulus, peptide conc. in assay 10, 100, 1000 nM, class symbols
  aLIZA BMP7 (10 nM) % Inh: ND (the inhibitory activity was less than 30% at the maximum concentration evaluated)

## 99 ({CH2CO}-E[KCOpipzaa]VYVDR[Bip]SYP[Bip]Y[Phe(4-COOH)][Phe(4-COOH)]SC[βAla][dE]-OH; thioether N-17; not fully specified) [compound 99]
[1]; [6]
  aLISA BMP4: A (showed an inhibitory activity of 50% or more in a zone to which the peptide was added to in an amount of 0.2 nM)
[2]; [7]
  aLISA BMP7: C (showed less than 50% of inhibitory activity in 10 nM-addition zone and showed 50% or more of inhibitory activity in 100 nM-addition zone)

## 285 (E[KCOpipzaa]V[Phe(4-COOH)]V[KCOpipzaa]R[3Pal(6-Ph)][KCOpipzaa]Y[Hyp][Bip][4Pal][Phe(4-COOH)][Phe(4-COOH)]SC[βAla]) [compound 285]
[1]; [3]
  aLIZA BMP4 (0.2 nM) % inh: C (showed less than 30% of inhibitory activity in 0.2 nM-addition zone and showed 30% or more of inhibitory activity in 2 nM-addition zone)
[2]; [4]
  aLIZA BMP7 (10 nM) % inh: H (showed less than 30% of inhibitory activity in 300 nM-addition zone and showed 30% or more of inhibitory activity in 1,000 nM-addition zone)

## 346 (FG[NMeF]G[Bip]GDD[Cha]A[NMeF]IHCG-NH2; not fully specified (N-terminus, bridges)) [compound 346]
[1]; [8]
  aLISA BMP4 (0.2 nM) % inh: ND (the inhibitory activity was less than 30% at the maximum concentration evaluated)
[2]; [9]
  aLISA BMP7 (10 nM) % inh: D (showed less than 30% of inhibitory activity in 10 nM-addition zone and showed 30% or more of inhibitory activity in 100 nM-addition zone)

## 102 ({CH2CO}-E[KCOpipzaa]VYV[KCOpipzaa]R[Bip]SYV[Bip]Y[Phe(4-COOH)][Phe(4-COOH)]SC[βAla][dE]-OH; thioether N-17; not fully specified) [compound 102]
[1]; [6]
  aLISA BMP4: C (showed an inhibitory activity of less than 50% in 0.2 nM-addition zone and showed an inhibitory activity of 50% or more in 2 nM-addition zone were defined as B or C)
[2]; [7]
  aLISA BMP7: C (showed less than 50% of inhibitory activity in 10 nM-addition zone and showed 50% or more of inhibitory activity in 100 nM-addition zone)

## 319 (ERV[Phe(4-COOH)][Cha4tH][KCOpipzaa]R[3Pal(6-Ph)][KCOpipzaa]Y[Hyp][Bph3C]Y[Phe(4-COOH)][Phe(4-COOH)]SCG-NH2; not fully specified) [compound 319]
[1]; BMP4 0.2 nM, peptide 0.02, 0.2, 2 nM, Table 6
  aLIZA BMP4 (0.2 nM) % inh: B (showed less than 30% of inhibitory activity in 0.02 nM-addition zone and showed 30% or more of inhibitory activity in 0.2 nM-addition zone)
[2]; BMP7 10 nM, peptide 10, 100, 1000 nM, Table 6
  aLIZA BMP7 (10 nM) % inh: D (showed less than 30% of inhibitory activity in a zone to which the peptide was added in an amount of 10 nM and showed 30% or more of inhibitory activity in 100 nM-addition zone)

## 345 (FG[NMeF]G[Bip]GDD[Cha]A[NMeF][Ahp(2)]HCG-NH2; not fully specified (N-terminus, bridges)) [compound 345]
[1]; [8]
  aLISA BMP4 (0.2 nM) % inh: A (showed less than 30% of inhibitory activity in 2 nM-peptide-addition zone and showed 30% or more of inhibitory activity in 20 nM-addition zone)
[2]; [9]
  aLISA BMP7 (10 nM) % inh: D (showed less than 30% of inhibitory activity in 10 nM-addition zone and showed 30% or more of inhibitory activity in 100 nM-addition zone)

## 395 ([Phe(4-F)]G[NMePhe(4-Me)]G[Bip]GDD[Cha]A[NMeF]LHCG-NH2; not fully specified) [compound 395]
[1]; BMP4 0.2 nM stimulus
  aLISA BMP4 (0.2 nM) % inh: A (showed less than 30% of inhibitory activity in 2 nM-peptide-addition zone and showed 30% or more of inhibitory activity in 20 nM-addition zone)
[2]; BMP7 10 nM stimulus
  aLISA BMP7 (10 nM) % inh: D (showed less than 30% of inhibitory activity in 10 nM-addition zone and showed 30% or more of inhibitory activity in 100 nM-addition zone)

## 338 ({CH2CO}-FG[NMeF]G[Bip]GDD[Cha][Ahp(2)][NMeF]LHCG-NH2; thioether N-14) [compound 338]
[1]; [8]
  aLISA BMP4 (0.2 nM) % inh: ND (the inhibitory activity was less than 30% at the maximum concentration evaluated)
[2]; [9]
  aLISA BMP7 (10 nM) % inh: D (showed less than 30% of inhibitory activity in 10 nM-addition zone and showed 30% or more of inhibitory activity in 100 nM-addition zone)

## 370 (FG[NMeF]G[3Pal(6-Ph)]GDE[Cha]Q[NMeF]L[Phe(4-COOH)]CG-NH2; not fully specified (N-terminus, bridges)) [compound 370]
[1]; [8]
  aLISA BMP4 (0.2 nM) % inh: ND (the inhibitory activity was less than 30% at the maximum concentration evaluated)
[2]; [9]
  aLISA BMP7 (10 nM) % inh: D (showed less than 30% of inhibitory activity in 10 nM-addition zone and showed 30% or more of inhibitory activity in 100 nM-addition zone)

## 368 (FG[NMeF]G[Bip]GDE[Cha]Q[NMeF]L[Phe(4-COOH)]CG-NH2; not fully specified (N-terminus, bridges)) [compound 368]
[1]; [8]
  aLISA BMP4 (0.2 nM) % inh: ND (the inhibitory activity was less than 30% at the maximum concentration evaluated)
[2]; [9]
  aLISA BMP7 (10 nM) % inh: C (showed less than 30% of inhibitory activity in a zone to which the peptide was added in an amount of 1 nM and showed 30% or more of inhibitory activity in 10 nM-addition zone)

## 95 ({CH2CO}-ERVYVDR[Bip]SYP[Bip]Y[Phe(4-COOH)][Phe(4-COOH)]SC[βAla][dE]-OH; thioether N-17; not fully specified) [compound 95]
[1]; [6]
  aLISA BMP4: A (showed an inhibitory activity of 50% or more in a zone to which the peptide was added to in an amount of 0.2 nM)
[2]; [7]
  aLISA BMP7: C (showed less than 50% of inhibitory activity in 10 nM-addition zone and showed 50% or more of inhibitory activity in 100 nM-addition zone)
